{"source": "patent US20180230235A1", "target": "Human CAIX (carbonic anhydrase IX) (human) (UniProt Q16790)", "experiment": "ELISA screening, biotinylated human CAIX 0.25 ug/ml, negative control wells", "data": [{"substance": "negative control of the ELISA screening of the maturated library (designed binder)", "values": [{"measurement": "absorbance at 450 nm", "result": 0.1, "unit": "AU"}]}]}
